Experimental data reported in article PMC3021526, “Rise and Fall of an Anti-MUC1 Specific Antibody” (PLoS ONE, 2011).
Residue numbers refer to the chain shown, from its start.

T1: MUC1 15 aa peptide with cysteine (…-C) (human)
T1 sequence (peptide): APDTRPAPGSTAPPAC

T2: MUC1 32 aa peptide with a C-terminal cysteine (APDTRPAPGSTAPPAHGVTSAPDTRPAPGSTA-C) (Homo sapiens (synthetic peptide))
T2 construct: 32 residues of the tandem repeats (VNTR) of human MUC1; added C-terminal cysteine; also called MUC1 peptide antigen (32mer cys); MUC1 32mer Cys peptide
T2 chain: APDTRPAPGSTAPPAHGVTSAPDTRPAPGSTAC

T3: MUC1 15 aa peptide with cysteine (APDTRPAPGSTAPPA-C) (Homo sapiens (synthetic peptide))
T3 construct: 15 residues of the tandem repeat (VNTR) of human MUC1; added C-terminal cysteine, used for coupling to the chip; also called MUC1 peptide; MUC1 peptide antigen
T3 chain: APDTRPAPGSTAPPAC

B1: human anti-MUC1 scFv IIB6 (scFv, V domains shown)
VH: QMQLVQSGAEVKKPGASVKVSCKASGYTFTGHYMHWVRQAPGQGLEWMGWIDPVTGGTKYAQNFQGWVTMTRDTSIRTAYMELSRLRSDDTAMYYCAREVTGDRGQFDKWGQGTLVTVAS
VL: QSVLTQPPSVSVAPGKTARITCGGNNIGSKSVHWYQQKPGQAPVLVIYYDSDRPSGIPERFSGSNSGNTATLTISRVEAGDEADYYCQVWDSSSDWVFGGGTKLTVL
B2: HT186-G2 human IgG (antibody, V domains shown)
VH: B1 VH with Q1R, V20L, T30A, Q43R
VL: B1 VL with D50G, P54S
notes: as the VH of m4; human IgG heavy-chain constant region from the expression vector CHK622-08; as the VL of m4; C lambda derived from the vector CHL558-0; VH and VL ordered as synthetic genes, codon optimised for rat; also called HT186-G2 IgG
B3: affinity matured anti-MUC1 scFv HT186-B7 (scFv, V domains shown)
VH: B1 VH
VL: B1 VL with V44A, D50G, D52Y, S66Y, S75R
notes: From IIB6 by error-prone PCR (library A), off-rate panning; source: E. coli, IMAC purified; also culture supernatant from microtitre plates; not shown: c-myc, C-terminal, kept
B4: affinity matured anti-MUC1 scFv HT220-M-D1 (scFv, V domains shown)
VH: B1 VH with Q3L, V11A, S88P
VL: B1 VL with A13V, T21I, Y49N, D50N, T69M, A83S, K103R, V106I
notes: one potential N-glycosylation site in CDR2; source: E. coli, IMAC purified; also culture supernatant from microtitre plates; not shown: c-myc, C-terminal, kept
B5: affinity matured anti-MUC1 scFv HT186-G2 (scFv, V domains shown)
VH: B1 VH with Q1R, V20L, T30A, Q43R
VL: B1 VL with D50G, P54S
notes: as for B3
B6: affinity matured anti-MUC1 scFv HT186-D11 (scFv, V domains shown)
VH: B1 VH with G8E, V11L, T28S, M81L
VL: B1 VL with V44A, D50G, D52N
notes: as for B3
B7: affinity matured anti-MUC1 scFv HT220-M-G8 (scFv, V domains shown)
VH: B1 VH with K12M, T28S, Q39H, G57S, R77S
VL: B1 VL with D50G, S66T, T69M
notes: source: E. coli, IMAC purified; also culture supernatant from microtitre plates; not shown: c-myc, C-terminal, kept
B8: HT186-D11 human IgG (antibody, V domains shown)
VH: B1 VH with G8E, V11L, T28S, M81L
VL: B1 VL with V44A, D50G, D52N
B9: affinity matured anti-MUC1 scFv HT200-3A-C1 (scFv, V domains shown)
VH: B1 VH
VL: B1 VL with V12M, K16E, Y49N, N68K, S94I
notes: one potential N-glycosylation site in CDR2; From IIB6 by nested error-prone PCR (library B), panning in solution; source: E. coli, IMAC purified; also culture supernatant from microtitre plates; not shown: c-myc, C-terminal, kept

How the values were obtained:
[1] = molecular target: synthetic MUC1 glycopeptide APDT(GalNAc)… (human); test: SPR; IIB6 on the MUC1 glycopeptide; data not shown
[2] = molecular target: T1, MUC1 15 aa peptide with cysteine (…-C) (human); test: SPR; Biacore 2000; about 50 RU MUC1 15 aa peptide with cysteine coupled on a CM5 chip (NHS/EDC, PDEA); serial dilutions of scFv (0-400 nM) at 50 µL/min; 1:1 Langmuir separate fitting; IIB6 by steady-state model
[3] = molecular target: human anti-MUC1 scFv IIB6 (human); test: SEC; 80 µg IMAC purified scFv on Superdex200 10/300, PBS, 0.5 mL/min; monomer to dimer
[4] = molecular target: T2, MUC1 32 aa peptide with a C-terminal …; test: ELISA; MUC1 32 aa peptide with C-terminal cysteine coated in PBS over night at 4°C; dilution series of purified scFv, scFv-Fc or IgG in 2% M-PBST, 1.5 h at RT; scFv detected by 9E10 (c-myc), scFv-Fc and IgG by anti-human Fc HRP; conditions: both partners purified
[5] = molecular target: T3, MUC1 15 aa peptide with cysteine …; test: SPR; Biacore 2000; about 50 RU MUC1 15 aa peptide with cysteine coupled on a CM5 chip (NHS/EDC, PDEA); serial dilutions of scFv (0-400 nM) at 50 µL/min; 1:1 Langmuir separate fitting; IIB6 by steady-state model; conditions: both partners purified
[6] = molecular target: affinity matured anti-MUC1 scFv HT220-M-G8 (human); test: SEC; 80 µg IMAC purified scFv on Superdex200 10/300, PBS, 0.5 mL/min; monomer to dimer
[7] = molecular target: MUC1 on MCF-7 cells (human (endogenous in MCF-7)) (UniProt P15941); test: flow cytometry on cells; internalisation assay: MCF-7 cells with 10 µg/ml antibody on ice 1 h, washed, 1 h at 4°C; surface antibody detected by PE-conjugated mouse anti-human IgG
Chain of MUC1 on MCF-7 cells (human (endogenous in MCF-7)) (P15941 24-1255): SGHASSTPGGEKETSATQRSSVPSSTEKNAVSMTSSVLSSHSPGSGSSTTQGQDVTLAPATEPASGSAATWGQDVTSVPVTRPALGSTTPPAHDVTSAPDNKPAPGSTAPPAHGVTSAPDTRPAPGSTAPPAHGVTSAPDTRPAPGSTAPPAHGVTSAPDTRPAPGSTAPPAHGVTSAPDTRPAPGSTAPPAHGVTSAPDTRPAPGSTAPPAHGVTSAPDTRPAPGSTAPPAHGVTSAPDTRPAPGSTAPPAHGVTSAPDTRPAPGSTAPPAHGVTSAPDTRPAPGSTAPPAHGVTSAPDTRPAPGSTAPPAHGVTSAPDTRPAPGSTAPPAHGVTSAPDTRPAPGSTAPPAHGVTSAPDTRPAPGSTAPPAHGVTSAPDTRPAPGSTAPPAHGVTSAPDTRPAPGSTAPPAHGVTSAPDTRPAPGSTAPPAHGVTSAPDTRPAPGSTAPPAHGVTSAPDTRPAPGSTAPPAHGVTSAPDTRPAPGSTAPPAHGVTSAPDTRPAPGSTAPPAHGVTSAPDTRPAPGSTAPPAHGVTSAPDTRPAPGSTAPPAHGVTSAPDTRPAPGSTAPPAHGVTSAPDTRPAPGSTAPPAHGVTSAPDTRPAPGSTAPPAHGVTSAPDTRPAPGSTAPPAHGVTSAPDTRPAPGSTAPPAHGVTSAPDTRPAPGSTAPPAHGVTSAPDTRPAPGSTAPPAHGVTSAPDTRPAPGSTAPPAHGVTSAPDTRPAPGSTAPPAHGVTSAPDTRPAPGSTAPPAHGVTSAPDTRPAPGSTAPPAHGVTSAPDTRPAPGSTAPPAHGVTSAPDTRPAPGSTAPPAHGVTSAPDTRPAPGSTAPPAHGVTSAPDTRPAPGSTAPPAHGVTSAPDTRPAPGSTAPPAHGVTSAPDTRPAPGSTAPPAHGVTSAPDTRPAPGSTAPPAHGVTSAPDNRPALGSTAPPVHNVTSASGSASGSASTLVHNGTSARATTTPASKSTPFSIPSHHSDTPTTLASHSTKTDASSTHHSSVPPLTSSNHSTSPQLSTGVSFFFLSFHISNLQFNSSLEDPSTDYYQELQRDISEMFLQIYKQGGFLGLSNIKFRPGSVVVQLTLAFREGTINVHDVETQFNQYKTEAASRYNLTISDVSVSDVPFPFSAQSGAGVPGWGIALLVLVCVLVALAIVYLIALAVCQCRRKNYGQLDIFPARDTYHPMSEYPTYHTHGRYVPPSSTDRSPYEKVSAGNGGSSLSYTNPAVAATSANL

| Binder | Kd [5] [nM] | koff [5] [s⁻¹] | kon [5] [M⁻¹ s⁻¹] | also measured |
| --- | --- | --- | --- | --- |
| B1 |  |  |  | Kd [1]: 230 nM; Kd [2]: 310 nM; percent of the scFv dimerised [3]: 50%; stoichiometry N [3]: 2 |
| B2 |  |  |  | fold decrease of affinity against the scFv-Fc format [4]: ~10 fold |
| B3 | 1.3 | 2.1e-05 | 35000 |  |
| B4 | 3.7 | 0.00011 | 29000 |  |
| B5 | ≤ 1 | ≤ 1e-05 | 72000 |  |
| B6 | 0.57 | 7.2e-05 | 38000 |  |
| B7 | 4.4 | 0.00022 | 50000 | percent of the scFv dimerised [6]: 50%; stoichiometry N [6]: 2 |
| B8 |  |  |  | percentage of MUC1 positive cells (4°C) [7]: 68% |
| B9 | 2.1 | 0.0001 | 49000 |  |
